For one substance, relative band intensity (normalized to GST-Rab11 WT with SPIN90 FL) results are on record in PMC9504172.

Some targets named below: GST-Rab11 Q70L (human) (UniProt P62491); GST-Rab11 S25N (human) (UniProt P62491); GST-Rab11 WT (human) (UniProt P62491).
What all share (assay): pull-down; GST-Rab11 proteins immobilized on glutathione-Sepharose beads; lysates of cells expressing GFP-SPIN90 in buffer B (25 mM HEPES, 100 mM NaCl, 5 mM MgCl2, 1% NP-40, 10% glycerol); 2 h at 4 °C; immunoblot with anti-GFP

For the substance “GFP-SPIN90 C-term (C) (domain or fragment)”, the values for the relative band intensity (normalized to GST-Rab11 WT with SPIN90 FL) in the experiment with GST-Rab11 Q70L (human), with GST-Rab11 S25N (human) and with GST-Rab11 WT (human) were 1.43, 2.89 and 1.8, respectively.
